From patent US20080311122A1 (AstraZeneca / MedImmune, published 2008)
Values belong to the binder of their own block, whether it stands above or below them. No end group written: not given here.

Columns and labels:
[1] = target: T1, HMG1 B Box peptide amino acids 91-169; assay: ELISA, wells coated with HMG1 B Box peptide 91-169 at 10 ug/ml, anti-human IgG-HRP, OD 450
T1 construct: also called HMG1 peptide 91-169
T1 peptide: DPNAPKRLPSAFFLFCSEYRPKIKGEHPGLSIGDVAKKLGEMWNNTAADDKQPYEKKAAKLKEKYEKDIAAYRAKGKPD
Experimental: (§1) The plate was then blocked with 4% milk powder dissolved in PBS at 37° C. for 1 hour. The blocking solution was removed and replaced with human anti-HMG1 antibodies at various concentrations (see FIGS. 5A-B). […] HRP activity was detected with Sureblue HRP substrate (KPL). Plates were read at 450 nm using a Kinetic Microplate Reader (Molecular Devices). […] After washing and blocking with 1% BSA in PBS, the biotinylated peptides were individually added into the avidin coated wells and incubated for 30 min at room temperature. The serial diluted antibody G4, S16 and S6 at the initial concentration at 10 μg/ml were then transferred into the wells followed by adding mouse anti human IgG-HRP conjugate (Pierce). Detection was accomplished by adding 50 μl of tetramethylbenzidine (TMB) substrate (KPL) and the absorbance was read at […].

106-123 = target: T2, 106-123 (also: biotinylated, site not given here); assay: ELISA on biotinylated HMGB1 peptides captured on NeutrAvidin, antibody in serial dilution from 10 ug/ml, anti-human IgG-HRP, OD 450
T2 construct: Bar group label on the sheet
T2 peptide: CSEYRPKIKGEHPGLSIG
Experimental: as §1

[2] = target: T3, HMG1 purified from bovine (calf) thymus (bovine, UniProt P10103 2-215); assay: ELISA, wells coated with calf thymus HMGB1 at 5 ug/mL, antibody at 10 ug/mL, anti-human kappa/lambda-HRP, OD 490
T3 construct: also called Calf thymus HMGB1; thymus HMG1
T3 sequence (looked up): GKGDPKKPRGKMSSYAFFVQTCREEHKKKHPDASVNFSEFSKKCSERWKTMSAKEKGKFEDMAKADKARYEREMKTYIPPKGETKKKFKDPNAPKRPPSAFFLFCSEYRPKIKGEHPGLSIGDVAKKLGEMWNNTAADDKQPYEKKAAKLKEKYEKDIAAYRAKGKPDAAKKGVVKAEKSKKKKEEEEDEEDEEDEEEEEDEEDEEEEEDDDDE
Method in brief: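 Calf thymus HMGB1 or HMGB2 coated at 5 ug/mL in 10 mM PBS pH 7.2 overnight at 4 °C; anti-HMGB1 antibody added at 10 ug/mL final in PBS + 1% BSA, 1 h at room temperature. Detection with HRP anti-human kappa plus lambda (1:1000, 1 h), OPD substrate 20-30 min in the dark, H₂SO₄ stop, absorbance 490 nm.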

[3] = target: T1, HMG1 B Box peptide amino acids 91-169; assay: ELISA, wells coated with HMG1 B Box peptide 91-169 at 10 ug/ml
Method in brief: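 Biotinylated peptides captured on avidin-coated wells (1% BSA block, 30 min, room temperature), then antibodies added in serial dilution from 10 μg/ml; for the coated-peptide format, plates blocked with 4% milk/PBS 1 h at 37 °C. Bound antibody detected with anti-human IgG-HRP and TMB, absorbance at 450 nm.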

[4] = target: T4, recombinant HMG1 purified from E. coli as a calmodulin binding protein (CBP) fusion protein (human, UniProt A9RA84 1-215 (Papio anubis entry)); assay: sandwich ELISA: antibody captured on anti-human IgG Fc, rHMG1 2 ug/ml in solution, mouse anti-HMGB1 and anti-mouse IgG-HRP, OD 450
T4 construct: also called rHMG1; rHMGB1
T4 sequence: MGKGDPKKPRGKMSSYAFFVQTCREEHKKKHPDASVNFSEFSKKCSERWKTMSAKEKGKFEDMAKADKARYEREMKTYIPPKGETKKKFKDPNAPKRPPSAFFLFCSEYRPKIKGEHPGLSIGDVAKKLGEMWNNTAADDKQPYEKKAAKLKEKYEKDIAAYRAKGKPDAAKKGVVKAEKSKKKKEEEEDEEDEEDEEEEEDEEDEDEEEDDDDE
Experimental: (§2) Sandwich ELISA (soluble HMG1): Immunoplates (EIA/RIA plate, High binding, Costar) were coated with anti human IgG Fc at 10 μg/ml in PBS (pH 7.2) and incubated at 4° C. overnight. The coating reagent was removed and the plates were rinsed briefly with PBS. The plates were then blocked with 4% milk for 1 hour at 37° C. and rinsed with PBS. The anti-HMG1 antibodies were diluted in 4% milk. For serial dilutions, the antibodies were used at a starting concentration of 20 μg/ml. The diluted anti-HMG1 antibodies were then added into plate and incubated for 1 hr at 37° C. The plate was then washed 10 times with PBST (PBS/0.1% tween 20) and incubate with antigen (HMGB1, 2 μg/ml; or 0.7 μg/ml for native HMGB1) in 4% milk and incubated at 37° C. for 1 h. The plate was then wash 10 times and incubated with mouse anti-HMGB1, 1 μg/ml in 4% milk at 37° C. for 1 h. The plate was washed 10 times and incubated with anti-mouse IgG-HRP at 1:1000 at 37° C. for 1 h. The plate was then washed and developed. HRP activity was detected with Sureblue HRP substrate (KPL). Plates were read at 450 nm using a Kinetic Microplate Reader (Molecular Devices).

[5] = target: T5, native nuclear HMG1 prepared from 293H cells by freeze thaw (human, UniProt P09429 1-215); assay: sandwich ELISA: antibody captured on anti-human IgG Fc, native HMGB1 0.7 ug/ml in solution, mouse anti-HMGB1 and anti-mouse IgG-HRP, OD 450
T5 construct: unpurified cell lysate supernatant
T5 sequence (looked up): T4 sequence
Experimental: as §2

HMGB1 peptide 166-183 = target: T6, HMGB1 peptide 166-183 (UniProt P09429 166-183, also: biotinylated, site not given here); assay: ELISA on biotinylated HMGB1 peptides captured on NeutrAvidin, antibody in serial dilution from 10 ug/ml, anti-human IgG-HRP, OD 450
T6 peptide (looked up): GKPDAAKKGVVKAEKSKK
Experimental: as §1

[6] = target: T7, activated HMG1 prepared from LPS stimulated THP-1 cells (human, UniProt P09429 1-215); assay: cell-based or functional assay
T7 sequence (looked up): T4 sequence

B1: anti-HMG1 antibody G4 (antibody, V domains shown)
VH: EVQLLESGGGLVQPGGSLRLSCAASGFTFSWYDMTWVRQAPGKGLEWVSSISPSGGYTKYADSVKGRFTISRDNSKNTLYLQMNSLRAEDTAVYYCTTEFYDYLDVWGKGTTVTVSS
VL: DIQMTQSPGTLSLSPGEGATLSCRASQSVSSTYLAWYQQKPGQAPRLLIYEASKRATGTPARFSGSGSGTDFTLSISSLEPEDFAVYYCQHRHNWPPQWTFGQGTKVEVK
notes: also called ATCC PTA-6258
- binding result [1]: binds
- binding result (106-123): binds
- binding result [2]: binds

- binding result [3]: no binding (tested: 10 ug/ml (log 1.00))
- binding result [2]: binds
B2: anti-HMG1 antibody S6 (antibody, V domains shown)
VH: EVQLLESGGGLVQPGGSLRLSCAASGFTFSWYDMSWVRQAPGKGLEWVSRISPSGGYTMYADSVKGRFTISRDNSKNTLYLQMNSLRAEDTAVYYCARLEVGATSGGTAFDIWGQGTMVTVSS
VL: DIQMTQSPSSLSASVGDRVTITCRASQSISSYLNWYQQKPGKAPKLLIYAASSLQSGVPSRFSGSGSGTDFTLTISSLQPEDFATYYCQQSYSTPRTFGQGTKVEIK
notes: also called ATCC PTA-6143

- binding result [3]: no binding (tested: 10 ug/ml (log 1.00))
- EC50 (read off the curve) [4]: ~0.08 µg/mL
- binding result [2]: binds
- EC50 (read off the curve) [5]: ~0.8 µg/mL
B3: anti-HMG1 antibody S2 (antibody, V domains shown)
VH: EVQLLESGGGLVQPGGSLRLSCAASGFTFSGYMMVWVRQAPGKGLEWVSRISPSGGQTGYADSVKGRFTISRDNSKNTLYLQMNSLRAEDTAVYYCAREEGGSYGAFDIWGQGTMVTVSS
VL: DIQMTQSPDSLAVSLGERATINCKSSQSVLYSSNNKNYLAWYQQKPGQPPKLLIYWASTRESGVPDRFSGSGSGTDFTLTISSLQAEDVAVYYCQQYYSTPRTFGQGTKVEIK
notes: also called ATCC PTA-6142

- binding result [1]: binds
- binding result (HMGB1 peptide 166-183): binds
- EC50 (read off the curve) [4]: ~0.08 µg/mL
- IC50, inhibition of native activated HMG1 stimulated IL-6 release from human PBMC [6]: 38.9 nM
- binding result [2]: binds
B4: anti-HMG1 antibody S16 (antibody, V domains shown)
VH: EVQLLESGGGLVQPGGSLRLSCAASGFTFSWYSMLWVRQAPGKGLEWVSYISPSGGFTNYADSVKGRFTISRDNSKNTLYLQMNSLRAEDTAVYYCARWDYNSGWYYDHWGQGTLVTVSS
VL: DIQMTQSPDTLSLSPGERATLSCRASQSVNSRNLAWYQQKPGQAPRLLIYGASTRATGIPDRFSGSVSGTEFTLTISSLQPDDFATYYCQQYNSYFTFGQGTKLEIK
notes: also called ATCC PTA-6259
